In patent US20140056907A1 (Regeneron, published 2014):

T1: mouse ASIC1a (mouse, UniProt Q6NXK8 1-526)
T1 construct: whole, on cells; Expressed on stably transfected 3T3 cells (3T3/mASIC1a); also called mASIC1a
T1 sequence (looked up): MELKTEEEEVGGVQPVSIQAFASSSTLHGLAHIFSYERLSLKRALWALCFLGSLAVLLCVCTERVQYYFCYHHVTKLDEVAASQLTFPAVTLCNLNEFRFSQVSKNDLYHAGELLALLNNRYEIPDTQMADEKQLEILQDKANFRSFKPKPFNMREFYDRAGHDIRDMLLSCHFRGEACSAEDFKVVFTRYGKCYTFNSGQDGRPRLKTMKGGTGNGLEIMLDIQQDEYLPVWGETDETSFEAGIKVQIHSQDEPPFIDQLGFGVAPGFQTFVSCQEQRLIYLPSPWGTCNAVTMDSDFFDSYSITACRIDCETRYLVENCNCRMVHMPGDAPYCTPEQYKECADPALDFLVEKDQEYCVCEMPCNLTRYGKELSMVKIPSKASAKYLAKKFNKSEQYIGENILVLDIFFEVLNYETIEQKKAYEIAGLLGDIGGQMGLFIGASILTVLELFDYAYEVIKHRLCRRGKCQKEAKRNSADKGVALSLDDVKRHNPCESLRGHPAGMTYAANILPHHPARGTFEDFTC

T2: human ASIC1 (human, UniProt P78348 1-528)
T2 sequence: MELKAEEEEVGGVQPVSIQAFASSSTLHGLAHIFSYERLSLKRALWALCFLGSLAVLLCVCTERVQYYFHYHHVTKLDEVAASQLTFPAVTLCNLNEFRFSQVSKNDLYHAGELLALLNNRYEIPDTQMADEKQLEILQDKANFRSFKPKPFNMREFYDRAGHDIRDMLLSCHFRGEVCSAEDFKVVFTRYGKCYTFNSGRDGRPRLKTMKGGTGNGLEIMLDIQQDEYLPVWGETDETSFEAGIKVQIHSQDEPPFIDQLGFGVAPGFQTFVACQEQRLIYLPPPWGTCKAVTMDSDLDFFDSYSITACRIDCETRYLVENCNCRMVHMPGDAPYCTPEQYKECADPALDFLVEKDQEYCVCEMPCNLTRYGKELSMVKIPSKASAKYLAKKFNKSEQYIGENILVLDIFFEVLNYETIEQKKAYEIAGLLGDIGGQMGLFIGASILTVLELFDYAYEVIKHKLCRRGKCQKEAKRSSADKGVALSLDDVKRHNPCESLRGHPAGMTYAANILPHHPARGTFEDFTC

B1: H3M7102N (antibody, V domains shown)
VH: EVQLLASGGGLVQPGGSLRLSCAASGFTFSSFAMSWVRQAPGKGLEWVSGISGSGGSTYYADSVKGRFTISRDNSKNTLYLQMNSLRAEDTAAYYCAKEAYKWQPWGQGIRVTVSS
VL: DIQMTQSPSTLSASVGDRVSITCRASQSISSWLAWYQQKPGKAPKLLIYKASNLDSGVPSRFSGSGSGTDFTLTISSLQPDDFATYYCQQYNSYSYTFGQGTKLEIK
notes: Chimeric: human variable, mouse constant domains; H3M prefix marks the Fc, isotype not spelled out
B2: H3M6726N (antibody, V domains shown)
VH: EVQLLESGGVLVQPGGSLRLSCAASGFNFNNYDMSWVRQAPGKGLEWVSVISASGRNTYYADSVKGRFTISRDNSKISLYLQMNSLRPEDTAVYYCAKDHLVHYYYGMDVWGQGTTVTVSS
VL: DIMMTQSPLSLSVTPGEPASISCRSSQSLLHSNGYNYLDWYLQKSGQSPHLLIYLGSNRASGVPDRFSGSGSGTDFTLKISRVEAEDGGVYYCMQALQTPRTFGQGTKVEIK
notes: as for B1

Legend:
[1] = biological target: T1, mouse ASIC1a; test: FACS, 3T3/mASIC1a cells
Text: To further characterize anti-ASIC1 antibodies, their ability to bind either (a) a mouse fibroblast 3T3 cell line stably transfected to overexpress full length human ASIC1 (3T3/hASIC1; amino acids 1-528 of NCBI accession number NP_{—}001086.2 [SEQ ID NO:401]), (b) a 3T3 cell line stably transfected to over express full length mouse ASIC1a (3T3/mASIC1a; amino acids 1-526 of NCBI accession number NP_{—}033727), or (c) a ND7 cell line (ECACC, #92090903) that is a fusion cell line of mouse neuroblastoma and rat dorsal root ganglia that endogenously expresses rat ASIC1, was determined using flow cytometry (FACS). ND7 cells were differentiated by replacing the culture media with low-serum media (0.5% FBS) containing 1 mM dibutyryl-cAMP (Cat. No. sc-201567A, Santa Cruz Biotechnology, Inc., Santa Cruz, Calif.). FACS binding was tested for some antibodies on both undifferentiated ND7 cells and differentiated ND7 cells.
To perform the FACS binding experiments, adherent cells were collected using 1 mM EDTA in PBS, then washed, and re-suspended in cold PBS containing 5% FBS. For each binding experiment, each anti-ASIC1 antibody (at final concentrations of 10 nM of purified antibodies or 3.3 nM for antibody supernatants for binding to 3T3/hASIC1 cells and 5 nM for binding to 3T3/mASIC1a or ND7 cells) was added to 250,000 cells in 500 μL of PBS with 5% FBS. After incubation for 20 minutes at room temperature, a secondary antibody which recognizes human Fc (Cat. No. 109-136-098, Jackson ImmunoResearch Laboratories, Inc., West Grove, Pa.) or mouse Fc (Cat. No. 550826, BD Biosciences, San Jose, Calif.) and is conjugated to allophycocyanin, was then added to the cell mixture at a final concentration of 13.3 nM. After incubating for 20 minutes on ice, the cells were washed and resuspended in PBS containing 5% FBS, then sorted and analyzed on a flow cytometer (FACSCalibur, BD Biosciences, San Jose, Calif.) to determine relative binding by the candidate antibodies to the tested cell lines. Histograms of cells stained with anti-ASIC1 antibodies were compared with those of cells stained with secondary antibody alone. Percentage of ASIC1 signal over secondary antibody alone was calculated using FlowJo software (Tree Star, Ashland, Oreg.).

[2] = biological target: T2, human ASIC1; test: cell-based or functional assay
[3] = biological target: T2, human ASIC1; test: cell-based or functional assay; remark: listed apart in the source

Binder | binding result [1] | Current inhibition (%) at 100 nM antibody, Q-Patch, pH 6.0 [2] [%] | apparent IC50, human ASIC1 current, Q-Patch [3] [nM]
B1 | binds | 100 | ≤ 10
B2 | binds | 85 | > 10
